Assay: soluble on expression in E. coli; label from the status in PepcDB or PDB records
For “GMFADNTLTPKEAVRLCALGTIASQPMRYSELAGSVRHFTSRIMGPSLELMGISIELLRYEGLVEAVDDGQGMEDDAMLAISAAGRRELHSLLTARLRPGSDLSKLVVALKMRFLGLMEAEERAHQIDLLIEGVDSELARLADLRGSDGEGGSALAAWLDHDMALLESRLAWLEDFRARL”, the “soluble on expression in E. coli” value was “soluble”. In the case of “MGTQQKDVTIKSDAPDTLLLEKHADYIASYGSKKDDYEYCMSEYLRMSGVYWGLTVMDLMGQLHRMNKEEILVFIKSCQHECGGVSASIGHDPHLLYTLSAVQILTLYDSIHVINVDKVVAYVQSLQKEDGSFAGDIWGEIDTRFSFCAVATLALLGKLDAINVEKAIEFVLSCMNFDGGFGCRPGSESHAGQIYCCTGFLAITSQLHQVNSDLLGWWLCERQLPSGGLNGRPEKLPDVCYSWWVLASLKIIGRLHWIDREKLRSFILACQDEETGGFADRPGDMVDPFHTLFGIAGLSLLGEEQIKPVSPVFCMPEEVLQRVNVQPELVS”, the “soluble on expression in E. coli” value is reported as “soluble”. For “VNEVLAKNLSLLKEYQPETYLKLDRYIKGEYVPKDNSVEKILLARQDDLIINILVKCSDKDFLLCDHENPINEAYAWIDKYIDPSNKADIVFGMGLAFHLEVLLTSFPNKKVIVIEPNINLFYQIACIRNLEPVIKKAEIIVDEDLDVILERINSLFWDTEKGGIQVQPLEVYGEMFPEMWDKLRDSFIKLANNFTVDIATRRKFGELWVHNNIKNLNKICEASNAGVLVGKFKGIPGILVSAGPSLEKNIHLLKGLEDKCVIMAAGTAVRIMEDFGLAPHFMVGIDAGAKEGEIHSNVKNKDIYFIYSNQVSTYSVDGYKGPKFVMNYPIDMYTAGFFEYAGIKSDFFLSGPSVANTCFDILFKMGCDPIIIIGQDMAFTYGSMYAGEVPGTVVDGAGEAKRRGYVLAKDIYGNEVYTTRPFLAMRNWFEGYFEKVRDKTTIINATEGGLNISYARNETLEAALKSCNLSESGIKDHIRSLHEEGKFADTVASKIEEYRAYVQREIRRLEQLSKRQLETAEDLKRDVYHPSKSRSRFIKAVNSINEMSDRVLQSPIYNSLLKNLVEIDFYIIKAEVDRLVKILTKYDDIKNVYVNAILSQNQKLNASLGKIKKFFDESDVTA”, the “soluble on expression in E. coli” value was “soluble”. In the case of “QRSYERDFPHHDRICIVKTHGTRQSQEGDKPEELDFSQVSGGVAPAIQEEIPGVELATRTTLYGTSKMILEDNKTYETKTLLAEPAFLDMFGVELIAGVRDSALRDNMTCLISESLARKMGGDVLGKRLRPAESKSDRAITIGGVFEDLPHNSSIQADMLLPITWMPAESLNNWIGNDRYIAYVRLRPGVSPESLDEALLEMQKRHQDMEVFRKAGVELHYSLTPFNRLRLEDPTLVNMLRIQQ”, the “soluble on expression in E. coli” value is reported as “soluble”. In the case of “MNFETVIGLEVHVELKTKSKIFSSSPNAFGAPPNTQTNVIDLGYPGVLPVLNRQAVEFAMKAAMALNCEIATETKFDRKNYFYPDNPKAYQISQYDQPLGKNGWIEIEVNGKKKKIGITRIHLEEDAGKLTHTGDGYSLVDFNRQGTPLIEIVSEPDIRSPEEAYAYLEKLKAIIQYTGVSDCKMEEGSLRCDANISLRPIGSDKFGTKTELKNLNSFNFVRMGLEYEAKRQEKILLSGGVIRQETRRFDEATKTTVLMRVKEGSEDYRYFPEPDLVMLYIDDEWKERVRASIPELPDARRKRYIEEWGLPEYDAKVLTLTKEMADFFEATVANGADPKLASNWLMVEVSGYLNAEQKELHDIALTPESLAGMIKLIQDGTISSKIAKKVFKELVEHGGDPERIVKEKGLVQISDEGALRKIVLEVLDANPQSVEDYKNGKDRALGFLVGQVMKATKGQANPPLVNKLLVEEIGKR”, the “soluble on expression in E. coli” value is reported as “not soluble”. In the case of “MKFYILLVVLVAFVAAKPHPGYGRPSYGGGYGGGGGDFGGGGSGGQWGSQSSSFQQSQSSGGFQNNAGGGFGGGMGPGGGGWGRR”, the “soluble on expression in E. coli” value is reported as “not soluble”. For “SLGKEVATRATNDERCKILEQRLEQGMVFTEYERILKKRLVDGECSTARLPENAERNRFQDVLPYDDARVELVPTKENNTGYINASHIKVSVSGIEWDYIATQGPLQNTCQDFWQMVWEQGIAIIAMVTAEEEGGREKSFRYWPRLGSRHNTVTYGRFKITTRFRTDSGCYATTGLKMKHLLTGQERTVWHLQYTDWPEHGCPEDLKGFLSYLEEIQSVRRHTNSTSDPQSPNPPLLVHSSAGVGRTGVVILSEIMIACLEHNEVLDIPRVLDMLRQQRMMLVQTLCQYTFVYRVLIQFLKSSRLI”, the “soluble on expression in E. coli” value was “soluble”. For “MSPTLTHLALHVPDLDACIAFYETFCGMRVIHRRPGKGSQIVWMAEPGQEQRFIFVIMPGGQPRNLASDDYSHFGFALSSRAAVDDLARRAEAAGCLVWAPRDEPYPVGYYCGLRDPAGNYVEFSYGQPLGPGSEALPIP”, the “soluble on expression in E. coli” value was “not soluble”. With “MLDLIDSAKESVWIVSPYFVPDEEALAVIRRVAMSGVDVRVIIPGKGDRGISFHGSNAYVKTMIEAGAKMYAYADDSFVHAKAMLVDGTRAAIGTANFDVRSFRLNHELMVFLYDESEAMLHLKRDFKKDFEDSRLFTMKDMENKPLLTRIKEVLSSLLSPIL” the “soluble on expression in E. coli” value was “not soluble”. For “GPGSMPPAPAPPFSSVSQCLSALLPPTAFSLLPLTHTHTHTHTHRTCTHIIFSEPHIVFYCVCPFTRCHRRRPLPSPLSLSLPQHTTLSTAINKHEAEVVLDWSMSRLARALAKPFTVPVAMCTRHVAAMDEPLKRHIDAYAARGEDITIAVWREYVDGQRALLPYRWTKFRSEVAYLTSGQMAITDLTFADLLVFIRFLTKCLFIFIVAVMVGRRSVFPSLEPTSPFVEEIVKNWQPNRLHGVAGAEYMACDQAAAAGYGHR”, the “soluble on expression in E. coli” value was “soluble”. For “MGSDKIHHHHHHMKRMTKIGIYGMAVWMLSACGNGTPDYDATGTFEATEVIVSAEAAGKLLQLEVEEGTRLKAGEEVGLVDTVQLYLKKLQLEASMKSVESQRPDLAKQIAATKQQITTAQREKKRVENLLAAGAANQKQLDDWDAQVTLLQQQLIAQESSLMKSTNSLTEQGNSVSIQVAQVEDQLNKCHIQSPIEGTVLAKYAEGGELASVGKPLFKVGEVDRMYLRAYVTSEQLSQVKLGDKVTVYSDYGNSEQKAYPGVVTWISDRSEFTPKTILTKNERANLVYAVKIAVKNDGSLKIGMYGGVVWKKENP”, the “soluble on expression in E. coli” value was “not soluble”. With “MSLFLDVQGTLISDHDKSLIHGAKELIDFLNAKNLPYLIITNNTKKLDFLEKLQQKGLVIKENAYIDPFSVLKHLLRPCKVAAFGADEFVKSLENLGFELDFVNPSAVLVASYDDFKFKDFATMIELARREVRFIAMHETSIYKKDGRPYPGVGSIMAMLKNAIDFEYEVVGKPSIAFYKEALNLIRRQNSKIDFEDIKIISDDFRGDLLKAKELGMKTLLVLSGKISDTKGLDTDLLDGVYPSVFEFLKDLKCQIEGHHHHHH” the “soluble on expression in E. coli” value was “not soluble”. In the case of “MLPFLFFSTLFSSIFTEAQKQYWVCNSSDASISYTYCDKMQYPISINVNPCIELKGSKGLLHIFYIPRRDLKQLYFNLYITVNTMNLPKRKEVICRGSDDDYSFCRALKGETVNTTISFSFKGIKFSKGKYKCVVEAISGSPEEMLFCLEFVILHQPNSNLEHHHHHH”, the “soluble on expression in E. coli” value is reported as “not soluble”. With “MENNVESNLQPVPMRYGDKRYYSWNQHLREQFGEKVFKVPLDAGFDCPNRDGNVASGGCTFCSERGSGDFAGDRKDDLVTQFHTIKERMHKKWTSGKYIGYFQAYTNTYAPVETLREYYEVILEQEGVVGLAIATRPDCLPDDVVEYLAELNKRTYLWVELGLQTVHERTALLINRAHDYQCYVDGVNKLRKHGIRVCSHIINGLPLENHQMMMETAKEVAKLDVQGIKIHSLHLLKRTPMVKQYEKGLVEFMSLEEYVNLVVDQLEVLPPHMIIHRLMGDGPGDLMIGPMWSMKKWEVLNAIEAELERRDSWQGKHYRAQVEVQ” the “soluble on expression in E. coli” value was “not soluble”. In the case of “MSLSTRVFPERPILVVDDERAALDGFEVALVSSGYTNIVTMDDSRKVLPFIAEHEAELILLDLIMPHVSGTELIEEIKRRRPEVPIIIITAVNDIDSVVECIRNGAQDYILKPVDKDHLRNRVQQALERRELERENRLLRASLLDGEIRHPEAFSDIVTQDQKMHAIFRYCEAVAPSTKPILITGETGTGKELVAQALHRLSGRKGEFVAVNIAAFDDPVFADTLFGHSRGAFTGADTPRAGLVEKAAGGTLFLDEIGDLPALSQVKLLRLLQEKEYFPVGSDNAKKANVRIVASTLKNLVDLRHRGLFRDDLYYRLTTHRIHIPPLRERPGDIPCLLDHFLELDAREQKRKPPSYHPELINLLRSYAFPGNIRELRGMISDAFMNHASHMLSSSSFRQYIMNEGHHHHHH”, the “soluble on expression in E. coli” value is reported as “soluble”. For “MGSDKIHHHHHHMNEAQQLQQMQPLLYKQLQKSFEHGRLAHAYLFEGDTGTGKQEFGLWMAKHVFCTNLVNQQPCNECHNCVRINENEHPDVLRIAPDGQTIKVNQIRELKAEFSKSGVETAKKVFLIQEADKMSTGAANSLLKFLEEPEGQILAILETTSLSRILPTIQSRCQTLHFQPLVKKTLIDRLIKQGIGEKTATLLAELTNSFEKAVEISQDEWFNEAREIILQWFNYLKSNDLQAFIYVQKKMVKVFKEKEQQALSFDLLMVYYRQLLEESVATQQAKKVTEEQAERLALILKARQKWTANVSWQNVCEQLVIQMIHPKS”, the “soluble on expression in E. coli” value was “not soluble”. For “SSSSVPNSDRKIVTGPAGYILEDVPHFSDDFPDHPTYPNPLQDNAAYSVVKQYFVDEDDTVPQKIVVHPDSPRGTHFRRAGPRQRVYFESDDVLACIVTCGGLCPGLNTVIREIVCGLSYMYGVKRILGIDGGYRGFYARNTIHLDLKTVNDIHRSGGTILGTSRGGHNTTKIVDSIQDRGINQVYIIGGDGSQKGAAAIFEEIRKRKLKVAVAGIPKTIDNDIPIIDRSFGFDTAVEEAQRAINAAHVEATSFENGIGLVKLMGRYSGFIAMHATLASRDVDCCLIPESPFFLEGSGGLFEFIDKRLKESGHMVIVIAEGAGQDLLSESMKESTTLKDASGNKLLQDIGLWISQRIKDHFAKKMTLTLKYIDPTYMIRAVPSNASDNVCCTLLAQSAVHGVMAGYNGFTVGLVNGRHTYIPFNRITEKQNKVVITDRMWARLLSSTNQPSFMKQADKIHSNQLVGEPGTMKW”, the “soluble on expression in E. coli” value was “soluble”. With “MELEAGTVVEGRVVRVVSFGAFVELAGGEQGLVHISQIAHEYVTNVRDYLNEGDIVQVLIKGRDAKGRLDLSIKDLTPAPEGGAPPPRPRRLPKQSPEFENKLKSFLRGTGGFGGKGKKGGRKKR” the “soluble on expression in E. coli” value was “soluble”. With “MAHHHHHHMDRRHLELEDAQERASAEEVATQASAEHKHYMNDSDEDSDEENGIDDEQSASLVAMLRTQEEIDSAIAGFTKGTRMLLASSGNGYVSYLDGSVHFTIAKVESHNASNREKVMQALAGTNVAMPTAEEYSLEEVRQAMHDRDTARKKLDALRALQDPTYTARIRSAEKDTYGTPVQQLMEEDGDMSALVANCEDAKRFAESVRKAYNSRAAASAHALACALCTPPFTAEQESTSEAQAPAGKMANAEDGVSQPTGANSPSSSTSAQ” the “soluble on expression in E. coli” value was “soluble”. In the case of “MSLRLSKTLCMAILAGSTLLAPNALMAMGGPSRVKIDWQIQGQMGMIKMNPYGLSPLTAIIMNNGYVLSDIKKNQMVKLFLNNVNSKMAKTYGGIPIFGLYPSYSKGKVSYTKTANGKSQKVIDEIYKITTPWASIEPSGRTDQRGTLFENVKVLKMDPKFSDRLYLVNNAPGKQSGKDSQSVWNNLVGGAMEWDENSNVFIIDTKGEIRWYYDNNKLMNWGNIYNRGIMISFRQNKDGALTWGFGQRYVKYDCLGREIFNRKLPAVYIDFSHAMDNMQNGHYFFNKYFASLRPDSKHVRTVCDTIIEVDENGNVVDDWRLYKILDPYRSTIIKTLDQSAVCLNIDASKVGKTLSDEELAKMDESDKFGDIAGIGRNWAHAYKGWNKEFQKYLLQPVDKNGNEWFYPVTSLTQYEPDKDSIMVYSATLEWLLILVKVSLGEPKPKIDEFNWGAKEPSVQIQFSGSGTDYQAMPFSVDQAFNPKEGHHHHHH”, the “soluble on expression in E. coli” value is reported as “not soluble”. With “PSETFYRAKIQEQRERHARYHDTTYNLEPDIKSTPGGLRDIHTLSWVARRHFGATSLLEMSRYGFLTDAEYRELVECQDFLWRVRFALHIELRRYDNRLTFAHQAQVAENLGYVGEGNRGVEMMMKEFYRTLRRVAELNKMLLKLFDQAIINGGATENAEILDADFQRRGSLIEARKPALFQARPETILDMFLHIANDSTIEGVSPPTLRQLRTARRRLN” the “soluble on expression in E. coli” value was “not soluble”.

— the DeepSol protein solubility set
